Measured values as given in the nanobody polyreactivity screen of Harvey et al. (2022).

Experiment: yeast display, Sf9 membrane polyspecificity reagent, FACS + sequencing; frameworks hold sequencing errors
Summary of the method: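 Polyreactivity labels are assigned by the sorting gate from which each nanobody was recovered. The gates were low and high (top ~1%), set on anti-HA fluorescence for expression and streptavidin fluorescence for reagent binding. Before sorting, galactose-induced (36–48 hours) yeast display cells were stained for 1 hour at 4 °C with 10% biotinylated, detergent-solubilized Sf9 membrane reagent.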

| Sequence | polyreactivity (PSR sort gate) |
| --- | --- |
| QVQLVESGGCLVQAGGSLRLICAASGLIFTGNAMGWYRQAPGKERELVAAINYSGGSTYYADSVKWRFTISRDNAKNTVSLQLNSLKAEDTAVYYCAAGGKSRSYYWGQGTQVTVSS | high polyreactivity |
| QVQLVESGGGLVQAGGSLRLSCAASGRIGYYAMGWYRQAPGKERELVAAISYGGGSTYYADSVKGRFTISRDNAKNTVYLQMNSLKPEDTAVYYCAARWGISWRGYGYWGQGTQVTVSS | high polyreactivity |
| QVQLVESGGGLVQAGGSLRLSCAASGNTFRIYTMVWYRQAPGKERELVATITRRGGSTYYADSVKGRFTISRDNAMNTVYLQMNSLKPEDTVVYYCAARVRGTGVYGGYNYWGQGTLVTVSS | high polyreactivity |
| QVHLVESGGGLVQAGGSLRLSCAASGSTFTLNAMGWYRQAPGKERELVAAITWDGGSTYYADSVKGRFTISRDNAKNTVYLQMNSLKPEDTAVYFCAADREFWWEVVYTYEYYYWGQGTQVTVSS | low polyreactivity |
| QVQLVESGGGIVQAGGSLRLSSAASGSTFYAYTMGWYRQAPGKERELVAAISSGGGTYYADSVKGRFTISRDNAKNTVYLQMNSLKPEDTAVYYCNADWRVGRQLSKAKIPYDYWGQGTQVTVSS | low polyreactivity |
| QVHLVESGGGLVQAGGSLRLSCAASGRIFYSHAMGWYRQAPGKEREFVAAISWSGGGTYYADSVKGRFTISRDNAKNTVYLQMNSLKPQDTAVYYCAARFRYYGSEYDYWGQGTKVTVSS | low polyreactivity |
| QVQLVESGGGLVQAGGSLRLSCAASGFTFGRYAMGWYRQAPGKERELVATISRSGGRTYYADSVKGRFTISRDIAKKTVYLQMNSLKPEDTAVYYCAADTRNYPRYDYWGQGTQVTVSS | high polyreactivity |
| QVQLVESGGGLVQAGGRLRLSCAASGIIVGLYTMGWYRQARGKERELVAAISDSGGRTYYADSVKGRFTISRDNVKNTVYLQMNSLKPEDTAVYYCATRWPHYGGYYYWGQGTQVTVSS | high polyreactivity |
| QVQLVESGGGLVQAGGSLRLSCAASGGTFSRYAMGWYRQAPGKERELVAAITRSGASTFYADSVKGRFTISRDNAKNTVYLQMNSLKPEDTAVYYCAADTYVYNEYDYWGQGTQVTVSS | high polyreactivity |
| QVQLVESGGGLVQAGGSLRLSCAASVITFWIYAMGWYRQAPGKERELVAAITGRGGSTYYADSVKGRFTISRDNAKNTVYLQLNSLKPEDTAFYYCAAESWYSTYDYWGQGTQVTVTS | high polyreactivity |
| QVQLQESGGGLVQAGGSLLSCAASGTISWVDEMGWYRQAPGNERELVAGIAGGGNTNYADSVKGRFTISRDNAKNTVYLKMNSLDTAVYYCAVVGFGRGTHIYWGQGTQVTVSS | high polyreactivity |
| QVQLVESGGGLVQAGGTLRLSCAASGRILYLNAMGWYRQAPGKEREFVAAISKSGGSTYYADSVKGRFTISRDNAMNSVYLQMNSLKPEDTAVYYCATRFRSAEYDYWGQGTQVTVSS | low polyreactivity |
| HVQLVESGGGLVQAGGSRRLSCAASGRIFYGYAMGWYRQAPGKERELVAGISYRGARTYYADSVKGRFTISRDNAKNTVYLQMNSLKPEDTAVYYCNAVPYYPFAFGALDYWGQGTQVTVSS | high polyreactivity |
| QVQLVESGGGLVQAGGSLRLSCAASGSTFSYNAMGWYRQAPGKERELVAGITGRGGSTYYADSEKGRFTISRDNAKNTVYLQMYSLKPEDTAVYYCAADARSYGYPDDFWGQGTQVTVSS | high polyreactivity |
| QVQLVESGGGLVQAGGSLRLSCAASGFIFRSYAMGWYRQAPGKERELVAAISFSGGRTYYADSVKGRFTISRDNAKNTVYLQMNSLKPEDTAVYYCAAVPARIGVVLHIYTDSHYDYWGQGTQVTVSS | low polyreactivity |
| QVQLVESGGGLVQAGGSLRLSCAASGFTFTPNAMGRYRQAPGKERELVAVISYSGGSTYYADSVKGRFTISRDNAKNTVYLQMNSLKPEDTAVYYCAKRTYSSKYFGFEYWGQGTQVTVSS | high polyreactivity |
| QVQLVESGGGFVQAGCSLRLSCDASGSIFAPNVMGCYRQAPGKERELDAAINFIGGRTYYADSVKGRFTISRDNAKNTVYLQMNSLKTEDTSVYYCNVGSYYRSYSGDFEYWGQGTQVTVSS | high polyreactivity |
| QVQLVESGGGLVPAGGSLRLSCAASGSTFHYYTMGWYRQAPGKERELVAAISWRGTSTYYADSVKGRFTISRDNAKNTVYLQMNSLKAEDTGVYYCAVRSSPGAGYYYWGQGTQVTVSS | high polyreactivity |
| QVQLVESGGGLVQAGGSLRLSCAASGSIFKRNAMGWYRQAPVKETELVAAITRSGSSTYYADSVKGRFKISRDNAKNTVYLQFNSLKPEDTSVYYCAAQYESNGYTGYYWGQGTQVSVSS | high polyreactivity |
| QVQLEESGGGLVQAGGSLRLSCAASGFIIHLYGMGWYRQAPGKERELVAAISSGGRTYYADSVKGRFTISRDNAKNTVDLQMNSMIPEVTAVSYSAVFVAYLYSYYYWGQGTQVTVSS | low polyreactivity |
| QVQHVESGGGLVQAGGSLRLSCAPSGSTFYNNAMGWYRQAPGKERELVAAITRSGGSTYYADSVKGRFTISRDNAKNTVYLQMNSLKPEDTEVYYCNKYGYKGGVGYDYWGQGTQVTVSS | high polyreactivity |
| QVQLVESGGGLVQAGGSLRLSCAASGRTFVGNAMGWYRQAPGKERELVATITRRGGSTYYADSVKGRFTISRDNAKNTVYLQMNSLKPEDTAVYYCAAGSQPGRKYYYWGQGTQVTVSS | high polyreactivity |

| Sequence | polyreactivity (PSR sort gate) |
| --- | --- |
| QVQLVESGGGSVQAGGSLRLSCAASGSTIRYYAMGWYRQAPGKERELVARITSRAGRTYYADSVKGRFTISRDNAKNTVYLQMNSLKPEDTAVYYCNTRDFSGYVHALSLYDYWGQGTQVTVSS | high polyreactivity |
| QVQLVESGGRKVQAGGSLRLSCAASGYTSSRYAMGRYRPAPGKERELVAAISGTGGSTNYADSVKGRFTISRDNAKNNVYLQKNSLKPEDTAVYYCAKRSRTYGTSPYYYWGQGTQVSVSS | high polyreactivity |
| QVQLVESGGGLVQAGASLRLSCAASGYIFVRYAMGWYRQAPGKEREFVAAISSSGGSTRYADSVKVRFTISRDNAKNTVYLQMNSLKPEDTAVYYCAATRVARHGSPMYYWGQGTKVTVSS | high polyreactivity |
| QVQLVESGGGLVQAVGSLRLSCAASGSTFWFNAMGWYRQAPGKERELVAAIPSRGGYTYYADSVKGRFTISRDNAKNTVYLQMNSLKPEDTAVYYCAADYRYSSRKVFHFDYWGQGTQVTVSS | low polyreactivity |
| QVQLVESGGGLVQAGGSLRLSCAASGFIFDVYAMGWYRQAPGKERELVAAISSSGGRTYYADSVKGRFTISRDNAKNTVYLQMNSLKPEDTAVYYCAAKTHSRTKVYTADYWGQGTQVTVSS | high polyreactivity |
| QVQLVESGGGLVQAGGSLRLSCAASGFIFYRYAMGWYRQAPGKERELVAAISWGGGSTTYYADSVKGRFTISRDNAKNTVYLQMNRLKPEDTAVYYCAAYIGKGYGSEYYYWGQGTQVTVSS | low polyreactivity |
| QVQLVESGGGLVQAGGSLRLSCAASGSTFYRYAMGWYRQAPGKERELVADITRSGDSTYYADSVKGRFTISRDNAKNTVYLQMNSLKPEDTAVYYCAREYPTIRYRLGYWGQGTQVTVSS | low polyreactivity |
| QVQLVESGGGLVHAGGSLRLSCAASGSTFYSNVMGWYRQAPGKERELVAAISRSGGSTYYADSVKGRFTISRDNAKNTVYLQMNSLKAEDTAVYYCNRLRAPVRGDYWGQGTQVTVSS | high polyreactivity |
| QVQLVESGGGLVQAGGSLRLSCAASGSIFDINAMGWYRQAPWKERELVAAISLSAGSTYYADSVKGRFTISRDNSKNTVYFQMNSLYPDDAAVFYCNADGWYGYWGQVTQVTVSS | low polyreactivity |
| QVQLLESGGGLVQAGGSLRLSCAASGSTFDDYAMGWYRQAPGKEREFVAAIDWSGGSTYYADSVKGRFTISRDNAKNTVYLQMNSLKPEDTAVYYCNADPDGSFDYWGQGTQVTVSS | low polyreactivity |
| QVQLVESGGGLVQAGGSLRLSCAASGFIFPYNAMGWYRQAPGKDRELVAAISWSGSNTYYADSVNGRFTISRDNAMNTVYLQMNSLKPEDTAVYYCAARHSVYYFVQRNGRYGYWGQGTQVTVSW | high polyreactivity |
| QVQLVESGGGLVQAGGSLRLSCAASGSTFRPYAMGWYRQAPGKERDLVAAISSSGGSTYYADSVKGRFTISRDNAKNTVYLQMNSLKPEDTAVYYCAAVRRYRYPEYNHWGQGTQVTVSS | low polyreactivity |
| QVHLVESGGGLVQAGGSLRLSCAASGFTFRRYAMGWYRQAPGKERELVAAISYGGGRTYYADSVKGRFTISRDNAKNTVYLQMNSLKPEDTAVYYCAADVQSRYVGEGDYWGQGTQVTVSS | high polyreactivity |
| QVQLVESGGGLVQAGGSLRLSCAASGFIFSNNDRGLYRQAPGKDREVVAVINGGGSTYYADSVKASFTISRDNAKNTVFLQMNSLKPEDTAVYYCARKSWPKERRVDPGYDYWGQGTKVTVSS | low polyreactivity |
| QVQLVETGGGLVQAGGSLRLSSAASGSTFTYNVMGWYRQAPGKERELVAAISRIAGRTYYADSVKGRFTISRDTAKNTVYLQMNSLKPEDTAVYYCAALALKWRYDFWGQGTQVTVSS | high polyreactivity |
| QVQLVESGGRLVQAGGSLRLSCAASGSIFDAYAMGWYRQAPGKERELVAAITTVGSTNYADSVKGRFTISRDNAKNTVYLQMNSLKPEDTAVYYCNADCNTDIVPTPYDYWGQGTQVTVSS | low polyreactivity |
| QVQLVESGGGLVQAGGSLRLSCAASGRTFARYTMGWYRQAPGKERELVAAITSGGGSTYYADSVKGRFTISRDNAKNTVYLQMNSLKPEDTAVYYCNARRYYYITGRYGYWGQGTQVTVSS | high polyreactivity |
| QVQLVESGGGLVQAGGSLRLSCAASGSIFVPNAMGWSRQALGKERELVAAITYSGVDTYYADSVKGRFTISRDNAKNTVYLQMNSLKPEDTAVYYCAADNGRVGYDYWGQGTQVTVSS | low polyreactivity |
| QVQLVESGGGLVQAGGSLRLSCAASGIIFGRYTMGWYRQAPGKERELVAAITSSGITYYADSVKGRFTISRDNAKNTDYLQMNSLKPEDTAVYYCNADYSIPGYYWPYDYWGQGTQVTVSS | low polyreactivity |
| QVQLVESGGGLVQAGGSLRLSCAASGNTFYGYTMGWYIQAPGKDRELVAAISGRGGSTTYADSVKGRFTISRDNAKNTVYLQMNSLNPEDTAVYYCAATYVYIRTRFYYWGQGTQVTVSS | high polyreactivity |
| QVQLVESGGGLVQAGGSLRLSCAASGSTFSYYAMGWYRQAPGKERELVAAITRGGSTYYADSVKGRFTISRDNAKNTVYLQMNSLKPEDTAVYYWAGQLLRYRYYYWGQGTQVNVSS | high polyreactivity |
